Measurements: patent US12043827B2, “Compositions, systems, and methods for base diversification” (Pairwise Plants Services, Inc., priority 2020, dated 2024)

B1: mMPG: methylpurine glycosylase from Mus musculus, SEQ ID NO:83, UniProtKB Q04841 (protein, listed as Mus musculus)
chain: MPARGGSARPGRGALKPVSVTLLPDTEQPPFLGRARRPGNARAGSLVTGYHEVGQMPAPLSRKIGQKKQRLADSEQQQTPKERLLSTPGLRRSIYFSSPEDHSGRLGPEFFDQPAVTLARAFLGQVLVRRLADGTELRGRIVETEAYLGPEDEAAHSRGGRQTPRNRGMFMKPGTLYVYLIYGMYFCLNVSSQGAGACVLLRALEPLEGLETMRQLRNSLRKSTVGRSLKDRELCSGPSKLCQALAIDKSFDQRDLAQDDAVWLEHGPLESSSPAVVVAAARIGIGHAGEWTQKPLRFYVQGSPWVSVVDRVAEQMDQPQQTACSEGLLIVQK
B2: CgMPG: truncated MPG of Cricetulus griseus, SEQ ID NO:86, fused to C-terminus of ABE8e (protein, listed as Cricetulus griseus)
chain: EDHPARLGPEFFDQPAVTLARAFLGQVLVRRLADGTELRGRIVETEAYLGPEDEAAHSRGGRQTPRNRGMFMKPGTLYVYIIYGMYFCLNVSSQGAGACVLLRALEPLEGLDTMRQLRSTLRKSTVSRTLKDRELCSGPSKLCQALAIDKSFDQRDLTQDEAVWLEHGPLATGSPAVVAAARIGIGHAGEWTQKPLRFYVQGSPWVSVVDRVAEQMCQPQQTA
B3: CjMPG: truncated MPG of Callithrix jacchus, SEQ ID NO:88, fused to C-terminus of ABE8e (protein, listed as Callithrix jacchus)
chain: KGYLTRLGSEFFDQPAVTLAQAFLGQVLVRRLPNGTELRGRIVETEAYLGPEDEAAHSRGGRQTPRNRGMFMKPGTLYVYIIYGMYFCMNISSQGDGACVLLRALEPLEGLETMRQLRSTLRKGTASRVLKDRELCSGPSKLCQALAIDKSFDQRDLAQDEAIWLEHGPLEPSGPTVVAAARVGIGYAGEWSRKPLRFYVRGSPWVSVVDRVAEQDAQA
B4: SpThp1: uracil DNA glycosylase with activity towards inosine from Schizosaccharomyces pombe, SEQ ID NO:79 (protein)
chain: MNDIETRDTGTKNDNSSEFNLSVKSHKRKRSFDDENLELEESREETSGGILKKAKTQSFSESLERFRFAHAGSNNEYRKTDVVKNSDTDNGLLKSAVETITLENGLRNRRVNVTKKSTLKASVKKSTLKKKNEVDPALLQGVPDYICENPYAIIVGLNPGITSSLKGHAFASPSNRFWKMLNKSKLLEGNAEFTYLNDKDLPAHGLGITNLCARPSSSGADLRKEEMQDGARILYEKVKRYRPQVGLFISGKGIWEEMYKMLTGKKLPKTFVFGWQPEKFGDANVFVGISSSGRAAGYSDEKKQNLWNLFAEEVNRHREIVKHAV
modifications: Schizosaccharomyces pombe
B5: ClMPG: truncated MPG of Canis lupus, SEQ ID NO:87, fused to C-terminus of ABE8e (protein, listed as Canis lupus)
chain: KSHSAQLGSDFFDQPAVALARAFLGQVLVRRLDDGTELRGRIVETEAYLGPEDEAAHSRGGRQTPRNRGMFMKPGTLYVYIIYGMYFCLNVSSQGDGACVLLRALEPLGGLETMRQLRSTLRKGTTGRALKDRELCSGPSKLCQALAIDKSFDQRDLAKDRAVWLERSPPGPSEPAVVAAARVGIGHAGEWAQKPLRFYLRGSPWVSVVDRAAEQNAQA

Experiments:
[1] = test system: endogenous loci; test: Transversion mutations from adenine: ABE7.10 with inosine glycosylases (fusion or in trans), HTS in HEK293T cells; type: cell-based; conditions: fusion constructs and co-transfected constructs with ABE7.10, FIGS. 7A-7B and 8A-8B
From the text: The experiment was designed to generate transversion mutations from adenines by promoting inosines to undergo the same cellular DNA repair pathways that generate transversion mutations during translesion-bypass polymerization in cytosine base editing. While not wishing to be bound to any particular theory, it was hypothesized that the key step was to facilitate the glycosylation of inosines generated during adenine base editing. It was hypothesized that once glycosylated, the resulting abasic site can be a substrate for translesion-bypass repair and that this would lead to transversion mutations. Exogenous inosine glycosylases were provided along with ABE to promote inosine glycosylation.
Several inosine glycosylases were screened in HEK293T cells and it was determined whether they were capable of acting on inosines generated by ABE. If inosine is converted into an abasic site, and subsequently repaired through translesion-bypass polymerization, transversion mutations can be generated from adenines.
Five different glycosylases from various species were selected for testing. The following genes were codon-optimized and cloned into a mammalian expression vector, either as unfused gene, or as a C-terminal fusion to ABE7.10 (species source in parenthesis); hMPG (Homo sapiens) having an amino acid sequence of SEQ ID NO:84, mMPG (Mus musculus) having an amino acid sequence of SEQ ID NO:83, rMPG (Rattus norvegicus) having an amino acid sequence of SEQ ID NO:80, SpThp1 (Schizosaccharomyces pombe) having an amino acid sequence of SEQ ID NO:79, MaHDG (Methanosarcina acetivorans) having an amino acid sequence of SEQ ID NO:81, and MbHDG (Methanosarcina barkeri) having an amino acid sequence of SEQ ID NO:82. […] The HEK293T cells were transfected with a plasmid encoding gRNA targeting endogenous loci and either the fusion plasmid or a mixture of plasmids expressing ABE7.10 and the above inosine glycosylases. After 3 days, high-throughput sequencing was used to determine the editing result of targeted adenines. Mock transfection (using pUC19) was used to set baseline editing. All conditions that used ABE7.10 generated 10-20% guanine transition, as expected.

[2] = test system: Sites 1-5 (SEQ ID NO:131, 134, 133, 140, 132); test: Inosine glycosylase homolog testing, C-terminal fusions to ABE8e; type: cell-based; conditions: C-terminal fusion to ABE8e, Sites 1-5, FIG. 16

Molecule | generation of C and T bases from adenine over background [1] | adenine to C or T editing activity of adenine diversifiers [2]
hMPG: methylpurine glycosylase from Homo sapiens, SEQ ID NO:84, UniProtKB P29372 | significant amount of C and T bases over background | –
B1 | significant amount of C and T bases over background | –
B2 | – | displayed the highest activity
B3 | – | displayed the highest activity
B4 | significant amount of C and T bases over background | –
B5 | – | displayed the highest activity
